Test results: article PMC9019756

Molecular target: T1, His6-PhoP (Actinosynnema pretiosum X47 (derived from A. pretiosum subsp. auranticum ATCC 31565)) (UniProt A0A290ZEW1)
T1 sequence: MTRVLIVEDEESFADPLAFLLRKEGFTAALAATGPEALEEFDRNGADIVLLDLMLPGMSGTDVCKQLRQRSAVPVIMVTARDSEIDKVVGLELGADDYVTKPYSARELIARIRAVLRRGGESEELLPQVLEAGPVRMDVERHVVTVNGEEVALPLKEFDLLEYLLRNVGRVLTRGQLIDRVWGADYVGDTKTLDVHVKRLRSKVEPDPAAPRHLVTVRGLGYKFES
Assay: EMSA
Conditions: EMSA: 100 fmol biotin probe, binding buffer (composition not given), poly(dI-dC), 20-30 min at room temperature, 8% native PAGE; protein dialyzed in 50 mM …

Sequence	binding
GTGACTGGAGTTCCTTACCCCGATCCGGTGACCGGGGCCGGCGGCCCAGCCCCGGTCCCGCGATCCGCGAAAGCAGCCGCGAACCGCCGCTGACCTGGTCGAACGGCCCGCTGGAAGATCGCTTGAGCACCGCCGACGACGAGCGTCGACGCCCCCGCCCCGCAGCGGGCGGGGGCAGTCCCCCGTTGGAGTGCTCAGCTCCCCCCGGCGACGGCCGTACTAGGCGGCGGTCGTGTAGGGAAAGA (double strand) [fliM promoter probe]	no binding
GTGACTGGAGTTCCTTTTCGCGCAACAGCCGGTACCGGGTTCAGGTTAAACCGAGCAAGATAGCCCTAGAGGGGACACCAGCGGATACAGAGAGCAACAAAACAGGCACGTACAGAAGTCTTGTTAGCCCAGAAGGGTGATAAACGCCCCGATGTCGAGCGTTCCTCGCCACAGACACGTCACATCTGGCGAACTCGGTCGTTTGCTAGGCCGGGAAGGGAGAAGAGGGTAACGACGAGTCGTGTAGGGAAAGA (double strand) [ssgB promoter probe]	binds
TCTTTCCCTACACGACCGGCTTCCGTCCTTGGATGTCGGGCATCGGGCCCGTCCGTGGGTCCGTGGCGTTACAAACGGCAGTGCGCCTTCACTCCTGAGGGGGAACGAAGGGCGGCCAGGGTGGAGAAGGCCCGGCCGCCCGTCACCCGTAAGGAACTCCAGTCAC (double strand) [swrD promoter probe]	no binding
